Experimental data published in patent US20260274910A1, “SINGLE FUSION PROTEIN AND PHARMACEUTICAL COMPOSITION” (MEDI&GENE INC., priority 2023, published 2026).

Legend:
[1] = system: MDA-MB-231 triple-negative breast cancer cell line; assay: MTT cell viability in breast cancer cells; type: cell-based; details: 1 μM, 48 hours; compared with Control (PBS), SEQ ID NO: 4 and SEQ ID NO: 5
Description: Next, the test substances, the fusion proteins (SEQ ID NO: 1, 2, 3, 7, 14, 15) and shortened sequences (SEQ ID NOs: 9, 10, 11, 12) were treated to MDA-MB-231 triple-negative breast cancer cell line at a concentration of 1 μM (Control: PBS) for 48 hours. Thereafter, the cells were washed with PBS once, and the cells were suspended in serum-free buffer. The MTT (3-[4,5-dimethylthiazol-2-yl]-2,5-diphenyltetrazolium bromide) substance was added thereto at 0.5 mg/ml and incubated at 37° C. for 2 hours. Then, they were washed with PBS once, and the cells were lysed with DMSO for 15 minutes. The solution was transferred to a new plate and the absorbance was measured at 590 nm using a microplate reader.

[2] = system: SH-SY5Y dopaminergic neuron cell line; assay: Reactive oxygen in neuron cells under rotenone; type: cell-based; details: 1 µM rotenone + 100 nM test substance, 24 hours; compared with rotenone alone
Description: (§1) The SH-SY5Y dopaminergic neuron cell line was treated with 1 µM of a toxic substance, rotenone and 100 nM of each test substance simultaneously. After 24 hours, the MTT cell viability or the effect of reducing reactive oxygen was observed.

[3] = system: SH-SY5Y dopaminergic neuron cell line; assay: MTT cell viability of neuron cells under rotenone; type: cell-based; details: 1 µM rotenone + 100 nM test substance, 24 hours; compared with rotenone alone
Description: as §1

cAMP (cyclic AMP) = assay: cAMP level (hTRF) in undifferentiated 3T3-L1 cells; type: cell-based, mouse; details: undifferentiated 3T3-L1, 100 nM with 0.5 mM IBMX, 30 minutes; compared with Control and SEQ ID NO: 5
Description: To observe the functionality of the fusion proteins related to lipid metabolism, the 3T3-L1 mouse pre-adipocyte cell line was used as the cell line itself (undifferentiated) or by differentiating into adipocytes. Differentiation into the adipocytes was performed by inducing primary differentiation for the 3T3-L1 cells in a medium containing DMEM, 10% FBS, 10 μg/ml insulin, 0.5 mM IBMX (3-Isobutyl-1-methylxanthine), and 1 μM dexamethasone for 2 days, and inducing secondary differentiation with a medium containing DMEM, 10% FBS, and 10 μg/ml insulin for the remaining 4 days. The adipocytes in which differentiation was finally completed were treated with the test substances at a concentration of 100 nM for 30 hours (Control: PBS) and then used for each test.
Next, changes in cAMP (cyclic AMP), a signaling mediator contributing to lipolysis and energy metabolism were evaluated in the undifferentiated adipocytes. The undifferentiated cells were treated with the test substances at a concentration of 100 nM (Control: PBS) with 0.5 mM IBMX for 30 minutes. Thereafter, the level of cAMP was evaluated by the hTRF (Homogeneous Time Resolved Fluorescence) method (using CAMP Gs dynamic kit from Cisbio). As a result of the measurement, it was confirmed that the level of cAMP was higher in the groups treated with the fusion proteins (SEQ ID NOs: 1, 2, 3, 7, 13, 14, 15) and shortened sequences (sequences 9, 10, 11) compared with the Control and His tag-wild-type substance (1-81) (SEQ ID NO: 5) (FIG. 7).

MDA-MB-231 cell line = assay: Reactive oxygen generation (DCF-FA) in breast cancer cells; type: cell-based; details: 1 μM, 24 hours; compared with Control and SEQ ID NO: 5
Description: In addition, in order to examine generation of reactive oxygen that plays an important role in cancer cell death, each test substance was treated to the MDA-MB-231 cell line at a concentration of 1 μM (Control: PBS) for 24 hours. Then, the cells were stained with DCF-FA and their fluorescence values were observed and compared at 485/535 nm.

ATP5B protein = ATP5B protein (Homo sapiens, UniProt P06576); assay: SPR binding ability test; details: ATP5B on CM5 chip, flow rate 50 μl/min, relative to control shortened sequence (SEQ ID NO: 12)
Description: In order to evaluate substitutable residues within a sequence, an SPR (surface plasma resonance) test was conducted. Specifically, the ATP5B protein was conjugated to a CM5 chip by amine-conjugation, and then the contact of each test substance was observed under the condition of a flow rate of 50 μl/min, and the refractive index was measured. Thereafter, by converting each binding unit, the binding ability was compared and evaluated. […] A decrease of 10% or more in binding ability was considered to indicate a negative effect of the substitution.

ATP5B protein, sequence (P06576 48-529, species assumed): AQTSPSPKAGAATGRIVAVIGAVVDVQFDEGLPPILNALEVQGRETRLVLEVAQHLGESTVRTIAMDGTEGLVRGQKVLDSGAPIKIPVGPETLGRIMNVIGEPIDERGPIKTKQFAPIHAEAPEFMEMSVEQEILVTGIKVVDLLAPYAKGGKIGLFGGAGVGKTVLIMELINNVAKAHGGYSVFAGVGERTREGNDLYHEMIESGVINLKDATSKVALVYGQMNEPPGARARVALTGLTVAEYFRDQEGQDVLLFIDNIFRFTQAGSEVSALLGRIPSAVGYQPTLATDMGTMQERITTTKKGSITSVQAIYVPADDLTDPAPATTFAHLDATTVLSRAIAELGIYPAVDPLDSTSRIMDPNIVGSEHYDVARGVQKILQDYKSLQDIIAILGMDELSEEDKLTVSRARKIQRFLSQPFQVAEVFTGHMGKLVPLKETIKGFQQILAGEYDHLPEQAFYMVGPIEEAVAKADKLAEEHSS

Substance	Binding (%) (ATP5B protein)	other results
SEQ ID NO: 9: Synthetic peptide: Shortened substance (1-60) (GSDQSENVDRGAGSIREAGGAFGKREQAEEERYFRAQSREQLAALKKHHEEEIVHHKKEI; listed as Homo sapiens)	–	Cell viability (MTT) [1]: significantly low; Generation of reactive oxygen [2]: significantly inhibited; Cell viability (MTT) [3]: significantly increased; Level of cAMP (cAMP (cyclic AMP)): higher; Reactive oxygen generation (MDA-MB-231 cell line): generated higher
SEQ ID NO: 10: Synthetic peptide: Shortened substance (1-47) GSDQSENVDRGAGSIREAGGAFGKREQAEEERYFRAQSREQLAALKK (listed as Homo sapiens)	–	Cell viability (MTT) [1]: significantly low; Generation of reactive oxygen [2]: significantly inhibited; Cell viability (MTT) [3]: significantly increased; Level of cAMP (cAMP (cyclic AMP)): higher; Reactive oxygen generation (MDA-MB-231 cell line): generated higher
SEQ ID NO: 11: Synthetic peptide: Shortened amino acid modified substance (10-49; H49K mutation introduced) RGAGSIREAGGAFGKREQAEEERYFRAQSREQLAALKKHK	–	Cell viability (MTT) [1]: significantly low; Generation of reactive oxygen [2]: significantly inhibited; Cell viability (MTT) [3]: significantly increased; Level of cAMP (cAMP (cyclic AMP)): higher; Reactive oxygen generation (MDA-MB-231 cell line): generated higher
SEQ ID NO: 16: Shortened substance (8-35) amino acid Ala substituted (8) ADRGAGSIREAGGAFGKREQAEEERYFR	101.4	–
SEQ ID NO: 17: Shortened substance (8-35) amino acid Ala substituted (9) VARGAGSIREAGGAFGKREQAEEERYFR	91.6	–
SEQ ID NO: 23: Shortened substance (8-35) amino acid Ala substituted (16) VDRGAGSIAEAGGAFGKREQAEEERYFR	97.0	–
SEQ ID NO: 26: Shortened substance (8-35) amino acid Ala substituted (20) VDRGAGSIREAGAAFGKREQAEEERYFR	68.0	–
SEQ ID NO: 29: Shortened substance (8-35) amino acid Ala substituted (24) VDRGAGSIREAGGAFGAREQAEEERYFR	100.5	–
SEQ ID NO: 32: Shortened substance (8-35) amino acid Ala substituted (27) VDRGAGSIREAGGAFGKREAAEEERYFR	89.5	–
SEQ ID NO: 37: Shortened substance (8-35) amino acid Ala substituted (33) VDRGAGSIREAGGAFGKREQAEEERAFR	145.8	–
SEQ ID NO: 38: Shortened substance (8-35) amino acid Ala substituted (34) VDRGAGSIREAGGAFGKREQAEEERYAR	92.1	–
SEQ ID NO: 39: Shortened substance (8-35) amino acid Ala substituted (35) VDRGAGSIREAGGAFGKREQAEEERYFA	109.6	–

Continued, in another order:

Binding (%) (ATP5B protein)	Substance	other results
100.0	SEQ ID NO: 12: Synthetic peptide: Shortened substance (8-35) VDRGAGSIREAGGAFGKREQAEEERYFR (listed as Homo sapiens)	Cell viability (MTT) [1]: significantly low
104.2	SEQ ID NO: 18: Shortened substance (8-35) amino acid Ala substituted (10) VDAGAGSIREAGGAFGKREQAEEERYFR	–
100.0	SEQ ID NO: 19: Shortened substance (8-35) amino acid Ala substituted (11) VDRAAGSIREAGGAFGKREQAEEERYFR	–
98.5	SEQ ID NO: 20: Shortened substance (8-35) amino acid Ala substituted (13) VDRGAASIREAGGAFGKREQAEEERYFR	–
98.8	SEQ ID NO: 21: Shortened substance (8-35) amino acid Ala substituted (14) VDRGAGAIREAGGAFGKREQAEEERYFR	–
99.3	SEQ ID NO: 22: Shortened substance (8-35) amino acid Ala substituted (15) VDRGAGSAREAGGAFGKREQAEEERYFR	–
168.7	SEQ ID NO: 24: Shortened substance (8-35) amino acid Ala substituted (17) VDRGAGSIRAAGGAFGKREQAEEERYFR	–
89.6	SEQ ID NO: 25: Shortened substance (8-35) amino acid Ala substituted (19) VDRGAGSIREAAGAFGKREQAEEERYFR	–
94.0	SEQ ID NO: 27: Shortened substance (8-35) amino acid Ala substituted (22) VDRGAGSIREAGGAAGKREQAEEERYFR	–
102.3	SEQ ID NO: 28: Shortened substance (8-35) amino acid Ala substituted (23) VDRGAGSIREAGGAFAKREQAEEERYFR	–
85.2	SEQ ID NO: 30: Shortened substance (8-35) amino acid Ala substituted (25) VDRGAGSIREAGGAFGKAEQAEEERYFR	–
94.1	SEQ ID NO: 31: Shortened substance (8-35) amino acid Ala substituted (26) VDRGAGSIREAGGAFGKRAQAEEERYFR	–
96.7	SEQ ID NO: 33: Shortened substance (8-35) amino acid Ala substituted (29) VDRGAGSIREAGGAFGKREQAAEERYFR	–
94.0	SEQ ID NO: 34: Shortened substance (8-35) amino acid Ala substituted (30) VDRGAGSIREAGGAFGKREQAEAERYFR	–
157.9	SEQ ID NO: 35: Shortened substance (8-35) amino acid Ala substituted (31) VDRGAGSIREAGGAFGKREQAEEARYFR	–
426.0	SEQ ID NO: 36: Shortened substance (8-35) amino acid Ala substituted (32) VDRGAGSIREAGGAFGKREQAEEEAYFR	–
